How the values were obtained:
[1] = molecular target: T1, Human MAGEB2 (Melanoma-associated antigen B2) (human, UniProt O15479 1-319); test: IHC, antibody supernatant on FFPE CHO cells transfected with human MAGEB2
T1 construct: Intracellular antigen detected by IHC in FFPE material: CHO cells transfected with human MAGEB2 (mCherry vector with Myc/DDK tags, or ORF without tags)
T1 sequence: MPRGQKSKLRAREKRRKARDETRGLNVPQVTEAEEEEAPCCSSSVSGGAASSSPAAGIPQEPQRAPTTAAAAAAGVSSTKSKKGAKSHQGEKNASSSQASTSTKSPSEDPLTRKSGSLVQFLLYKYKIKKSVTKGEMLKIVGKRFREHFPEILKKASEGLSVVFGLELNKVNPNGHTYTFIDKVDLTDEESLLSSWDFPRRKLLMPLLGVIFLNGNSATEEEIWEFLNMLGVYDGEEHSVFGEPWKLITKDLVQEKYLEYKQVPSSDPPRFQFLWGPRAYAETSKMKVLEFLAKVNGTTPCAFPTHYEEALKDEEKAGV
Description: Negative control cells included parental Chinese hamster ovary (CHO) cells, CHO cells stably transfected with mCherry Vector Control (minus Myc/DDK tags), CHO cells stably transfected with mCherry-human DCAF4L2 (plus Myc/DDK tags). The cross-reactivity control cells included CHO cells transfected with mCherry Vector Control (plus Myc/DDK tags) with one of the human MAGE-B or MAGE-A family members (MAGEA1, MAGEA2, MAGEA3, MAGEA4, MAGEA5, MAGEA6, MAGEA8, MAGEA9, MAGEA11, MAGEA12, MAGEB1, MAGEB3, MAGEB4, MAGEB5, MAGEB6, MAGEB10, MAGEB16, MAGEB17, MAGEB18). Positive control cell lines included CHO cells transfected with mCherry Vector (plus Myc/DDK tags) with human MAGE-B2 or CHO cells transfected with mCherry Vector (open reading frame (ORF); minus Myc/DDK tags) with human MAGEB2, and thirteen human cancer cell lines with known endogenous RNA expression level of MAGEB2 (U266B1, T98G, KMM-1, U20S, CFPAC-1, SCaBER, UACC-257, CFPAC-1, VMRC-LCD, NCI-H1703, UM-UC-3, NCI-H1395, NCIH82).
FFPE samples were sectioned at 4 μm and mounted on positive charged glass slides. After mounting, paraffin sections were air-dried at room temperature. FFPE TMA samples were received as freshly sectioned and mounted on glass slides. The fully automated IHC assay was performed on a Discovery Ultra Stainer (Ventana Medical Systems, Tucson, AZ) using Ventana Anti-Rabbit HQ (cat #760-4815), Ventana Anti-HQ HRP (cat #760-4820), and Ventana Antibody Diluent with Casein (cat #760-219) (Ventana Medical Systems, Tucson, AZ). The slides were baked on the Discovery Ultra Stainer at 60° C. for 8 minutes, de-paraffinized with Ventana Discovery wash (cat #950-510) for 3 cycles (8 minutes each) at 69° C., and underwent cell conditioning (target retrieval) at 95° C. for 16 minutes (for cell arrays) or 32 minutes (tissues or TMAs) in CC1 buffer (cat #950-500). Following this, slides were incubated with Background Sniper (cat #BS966M, Biocare Medical, Pacheco, CA) in a Ventana Option Prep kit (cat #771-751) for 28 minutes, incubated with CM inhibitor (a part of the Ventana DAB kit cat #760-159) for 12 minutes, and incubated for 1 h at RT with MAGE-B2 antibody diluted with Ventana diluent with Casein in a Ventana Prep kit (cat #770-001) (working concentration at 0.1 μg/ml for cell pellet, or 1-5 ug/ml for tissues) or with a matched concentration of isotype control Rabbit IgG1 antibody.

[2] = molecular target: T2, huMAGEB2(1-319), biotinylated full length MAGEB2 protein (human, UniProt O15479 1-319, biotinylated with recombinant BirA (site not stated)); test: limited antigen FACS; biotinylated full length MAGEB2 on LumAvidin beads; B-cell supernatant
T2 construct: Expressed in E. coli from pET23; N-terminal 6xHis tag removed with caspase 3; also called Biotinylated MAGEB2 full length protein
T2 sequence: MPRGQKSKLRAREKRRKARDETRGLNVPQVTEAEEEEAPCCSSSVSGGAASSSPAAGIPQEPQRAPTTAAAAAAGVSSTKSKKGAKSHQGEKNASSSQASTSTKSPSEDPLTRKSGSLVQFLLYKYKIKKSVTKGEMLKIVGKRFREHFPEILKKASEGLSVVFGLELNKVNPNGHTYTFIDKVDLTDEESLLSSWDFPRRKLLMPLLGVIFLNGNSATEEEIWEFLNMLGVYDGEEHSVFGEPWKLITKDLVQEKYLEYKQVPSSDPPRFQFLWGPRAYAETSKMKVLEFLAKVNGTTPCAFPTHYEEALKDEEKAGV
Procedure: Biotinylated MAGEB2 full length protein was titrated 1:2 across 6 different limited antigen concentrations and then coated onto six different LumAvidin beads in FACS buffer [1×PBS+2% fetal bovine serum (Hyclone Cat No. SH30396.03)] for 30 minutes at room temperature in the dark. The beads were then washed twice in FACS buffer by centrifugation for 2 min at 3500 RPM. The coated beads were resuspended and pooled together (6-plex) and added to the rabbit B-cell supernatants at a 1:2 final dilution onto Corning 3897 96 well V-bottom polystyrene plates and incubated overnight at room temperature in the dark. […] A final wash was done before plates were read on the iQue FACS machine with Intellicyte autosampler to obtain flow cytometry measurements according to the manufacturer's recommendations; data analysis was done on Intellicyt ForeCyt® Enterprise Client Edition 6.2 (R3).

- binding result [1]: binds
- binding result [2]: binds
B1: 1G24 (antibody, IgG1, V domains shown)
VH: QSLEESGGGLVQPEGSLTLTCTASGFTLNNYYICWVRQAPGKGLEWIACIDNANGRTYYANWAKGRFTISKTSSTTVTLQMTSLTAADTATYFCARSLATPLWGPGTLVTVSS
VL: DIVMTQTPASVEAAVGGTVTIKCQASESIGNALAWYQQKPGQPPSLLIYRASTLASGIPSRVKGSGSGTQFTLTISDLECADAATYYCQSYDDSSSSSFFYAFGGGTEVVVK
notes: Rabbit monoclonal IgG1
